Legend:
[1] = target: membrane-bound lytic murein transglycosylase A (MltA) from Acinetobacter baumannii, N-terminally truncated (Gly23-Asn388), wild type (Acinetobacter baumannii); experiment: SEC-MALS; Ni-NTA-purified protein on Superdex 200 10/300, 20 mM Tris-HCl pH 8.0, 150 mM NaCl, 0.3 ml/min, 25°C; DAWN TREOS detector; self-association
[2] = target: abMltA triple mutant (D151K, Y162K or Y162W, E164K); experiment: SEC-MALS; conditions: read off a plot

stoichiometry N [1]	Substance	other: molecular mass (MALS) [2] [Da]
2	membrane-bound lytic murein transglycosylase A (MltA) from Acinetobacter baumannii, N-terminally truncated (Gly23-Asn388), wild type (enzyme)	–
–	membrane-bound lytic murein transglycosylase A (MltA) from Acinetobacter baumannii, N-terminally truncated (Gly23-Asn388), wild type D151K; Y162W; E164K	45000

— article PMC8562663
